From patent US20050129678A1 (published 2005)

T1: GST-Yil033C (yeast, UniProt P07278 1-416)
T1 construct: also called Yil033C-Bcy1; Yil033C-Bcyl; not shown: glutathione S-transferase (GST) fusion tag
T1 sequence (looked up): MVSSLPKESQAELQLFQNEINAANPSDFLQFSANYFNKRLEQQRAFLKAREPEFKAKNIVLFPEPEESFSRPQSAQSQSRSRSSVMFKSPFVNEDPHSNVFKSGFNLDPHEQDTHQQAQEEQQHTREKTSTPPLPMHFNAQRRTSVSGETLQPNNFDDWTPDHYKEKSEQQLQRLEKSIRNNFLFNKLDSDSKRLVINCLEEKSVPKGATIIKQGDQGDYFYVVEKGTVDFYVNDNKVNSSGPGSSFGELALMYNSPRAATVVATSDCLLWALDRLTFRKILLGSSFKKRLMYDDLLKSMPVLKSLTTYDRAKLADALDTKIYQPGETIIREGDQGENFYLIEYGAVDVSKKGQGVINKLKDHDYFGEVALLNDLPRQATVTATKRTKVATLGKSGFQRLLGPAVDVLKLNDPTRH

B1: GST-Ykl166C (enzyme, UniProt P05986 1-398, looked up)
chain: MYVDPMNNNEIRKLSITAKTETTPDNVGQDIPVNAHSVHEECSSNTPVEINGRNSGKLKEEASAGICLVKKPMLQYRDTSGKYSLSDFQILRTLGTGSFGRVHLIRSNHNGRFYALKTLKKHTIVKLKQVEHTNDERRMLSIVSHPFIIRMWGTFQDSQQVFMVMDYIEGGELFSLLRKSQRFPNPVAKFYAAEVCLALEYLHSKDIIYRDLKPENILLDKNGHIKITDFGFAKYVPDVTYTLCGTPDYIAPEVVSTKPYNKSVDWWSFGVLIYEMLAGYTPFYNSNTMKTYENILNAELKFPPFFHPDAQDLLKKLITRDLSERLGNLQNGSEDVKNHPWFNEVIWEKLLARYIETPYEPPIQQGQGDTSQFDRYPEEEFNYGIQGEDPYMDLMKEF
notes: also called Ykl166C-Tpk3; Tpk3; not shown: glutathione S-transferase (GST) fusion tag
B2: GST-Ypl203W (enzyme, UniProt P06245 1-380, looked up)
chain: MEFVAERAQPVGQTIQQQNVNTYGQGVLQPHHDLQQRQQQQQQRQHQQLLTSQLPQKSLVSKGKYTLHDFQIMRTLGTGSFGRVHLVRSVHNGRYYAIKVLKKQQVVKMKQVEHTNDERRMLKLVEHPFLIRMWGTFQDARNIFMVMDYIEGGELFSLLRKSQRFPNPVAKFYAAEVILALEYLHAHNIIYRDLKPENILLDRNGHIKITDFGFAKEVQTVTWTLCGTPDYIAPEVITTKPYNKSVDWWSLGVLIYEMLAGYTPFYDTTPMKTYEKILQGKVVYPPYFHPDVVDLLSKLITADLTRRIGNLQSGSRDIKAHPWFSEVVWERLLAKDIETPYEPPITSGIGDTSLFDQYPEEQLDYGIQGDDPYAEYFQDF
notes: also called Ypl203W-Tpk2; Yp1203W; not shown: glutathione S-transferase (GST) fusion tag
B3: GST-Yjl164C-Tpk1 (enzyme, UniProt P06244 1-397, looked up)
chain: MSTEEQNGGGQKSLDDRQGEESQKGETSERETTATESGNESKSVEKEGGETQEKPKQPHVTYYNEEQYKQFIAQARVTSGKYSLQDFQILRTLGTGSFGRVHLIRSRHNGRYYAMKVLKKEIVVRLKQVEHTNDERLMLSIVTHPFIIRMWGTFQDAQQIFMIMDYIEGGELFSLLRKSQRFPNPVAKFYAAEVCLALEYLHSKDIIYRDLKPENILLDKNGHIKITDFGFAKYVPDVTYTLCGTPDYIAPEVVSTKPYNKSIDWWSFGILIYEMLAGYTPFYDSNTMKTYEKILNAELRFPPFFNEDVKDLLSRLITRDLSQRLGNLQNGTEDVKNHPWFKEVVWEKLLSRNIETPYEPPIQQGQGDTSQFDKYPEEDINYGVQGEDPYADLFRDF
notes: not shown: glutathione S-transferase (GST) fusion tag
B4: endogenous Tpk1 (enzyme, yeast, UniProt P06244 2-397, looked up)
chain: STEEQNGGGQKSLDDRQGEESQKGETSERETTATESGNESKSVEKEGGETQEKPKQPHVTYYNEEQYKQFIAQARVTSGKYSLQDFQILRTLGTGSFGRVHLIRSRHNGRYYAMKVLKKEIVVRLKQVEHTNDERLMLSIVTHPFIIRMWGTFQDAQQIFMIMDYIEGGELFSLLRKSQRFPNPVAKFYAAEVCLALEYLHSKDIIYRDLKPENILLDKNGHIKITDFGFAKYVPDVTYTLCGTPDYIAPEVVSTKPYNKSIDWWSFGILIYEMLAGYTPFYDSNTMKTYEKILNAELRFPPFFNEDVKDLLSRLITRDLSQRLGNLQNGTEDVKNHPWFKEVVWEKLLSRNIETPYEPPIQQGQGDTSQFDKYPEEDINYGVQGEDPYADLFRDF
notes: Untagged yeast Tpk1 found in a GST fusion preparation; also called Tpk1wt; a protein with the same molecular weight as Tpk1

Key:
[1] = molecular target: T1, GST-Yil033C; test: microarray-based protein-protein interaction
[2] = molecular target: B4; test: co-purification with the GST fusion, Western blot with anti-Tpk1
Excerpt: (§1) Tpk1 is a protein kinase involved in pseudohyphal growth and ras signal transduction (Robertson et al., 1998, Pro Natl Acad Sci USA 95, 13783-7; Tokiwa et al., 1994, Nature 371, 342-5). […] Three of these proteins, Ykl166C-Tpk3 (a protein kinase), Ypl203W-Tpk2 (a protein kinase) and Yil033C-Bcyl (a cAMP-dependent protein kinase inhibitor) have been shown by mass spectroscopy to be co-immunoprecipitated with Tpk1 (Ho et al., 2002, Nature 415, 180-3).
(§2) SDS-PAGE and Western analyses of Protein Samples. Purified proteins were mixed with sample buffer, heated and run in 5%/10% SDS-PAGE gels, transferred to nitrocellulose and blocked overnight with 1% BSA in TBST. Subsequently, blots were probed with primary antibodies for 2 hours, washed three times with TBST, probed with secondary antibodies conjugated to HRP for 1 hour and washed three times with TBST. Femto-reagent (Pierce Co., Milwaukee) was added and images acquired with an Alpha Innotech Imaging station.

[3] = molecular target: B1; test: microarray-based protein interaction experiment
[4] = molecular target: B1; test: co-purification with the GST fusion, Western blot with anti-Tpk1
Excerpt: as §1, §2

## B1
[1]
  binding result: binds

## B2
[1]
  binding result: binds
[2]
  binding result: no binding

## B3
[1]
  binding result: binds
[3]
  binding result: no binding

## B4
[4]
  binding result: no binding
